Source: the supplement of paper PMC10567573

B1: CPXM2 (parent)
chain: EILGCPLPDPNNYYHRRNEMTTTD
B2: FUT8 (parent)
chain: NWRYATGGWETVFRPVSETCTDRS

Variants of: B1
Experiment: protein stability index of a GFP-peptide fusion (GPS, HEK-293T) (PSI 1-6); higher = more stable
Details: c terminus: a fixed tail appended
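Further: lentivirally expressed fusions sorted by FACS into six bins by GFP to DsRed ratio, PSI derived from sequencing read proportions per bin multiplied by bin number.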

Protein stability index, by site and new letter:
I2: A 4.51; N 4.55; H 4.64; C 3.98; D 4.86; S 4.51; L 3.34; P 4.87; F 3.75; R 4.28; E 4.91; M 4.04; Y 3.77; V 3.79; Q 4.76; W 3.82; T 4.32; K 4.54; G 5.13
C5: D 4.09; F 3.65; A 3.79; E 4.07
E1: Q 3.02; C 2.83; W 1.86; N 3.42; G 3.58; V 2.4; D 3.8; R 3.59; I 2.52; T 3.69; F 1.83; S 3.54; M 2.23; H 3.16; A 3.2; L 2.63; P 4.63; Y 2.29; K 3.18
G4: V 3.41; Q 3.5; F 2.69; L 2.69; Y 3.13; I 2.72; M 3.15; T 3.49; S 3.57; P 4.03; H 3.71; A 3.35; D 3.96; R 3.73; E 4.09; C 3.47; N 2.93; K 3.39; W 2.77
L3: F 3.38; M 4.05; H 4.16; I 3.58; E 4.39; N 3.78; C 4.07; Y 3.7; S 4.41; V 3.85; P 4.7; K 4.48; T 3.99; G 4.45; R 4.3; W 3.84; A 4.09; Q 4.13; D 4.32

Variants of: B2
Experiment: as above
Details: c terminus: a fixed tail appended

Protein stability index: each site, then its substitutions
E18: K 2.27; Y 2.18; W 2.45; G 1.41; R 1.8; M 1.4; D 2.28; Q 1.54; H 1.51; T 2.15; N 1.75; I 2.05; L 1.97; V 2.76; F 2.36; P 2.06
P15: G 2.05; R 1.68; I 2.35; W 1.98; N 1.95; Q 2.43; T 1.82; Y 1.27; D 3.23; K 2.03; L 2.1; S 3.98
F13: R 2.69; T 2.28; L 2.28; W 3.09; N 2.78; Y 1.55; D 3.66; V 1.64; A 3.91; M 2.28; K 3; Q 2.52; C 2.15; H 2.99; I 1.66; P 3.54; E 3.2
R14: S 1.01; E 1.83; V 1.55; G 1.57; M 1.7; W 1.6; F 1.29; Q 1.77; K 1.7; H 1.12; Y 2.1; C 3.72; T 3.45; P 2.69; I 2.66; D 2.4; N 3.41
T21: M 3.38; E 1.55; K 2.49; F 2.31; H 1.56; P 1.26; A 1.39; G 1.47; Y 1.84; V 1.9; R 2.8; D 1.34; L 2.43
D22: I 2.98; S 2.43; P 1.48; N 1.24; C 1.93; T 3.48; R 1.84; W 1.25; K 2.12; Q 1.69; Y 2.07; H 1.45; V 1.54; M 1.9; E 2.33; L 1.7
R23: P 2.08; W 1.91; A 2.36; N 1.44; I 1.21; K 1.92; G 1.6; S 1.56; D 2.41; T 2.02; F 1.77; H 3.12; M 2.34; L 3.42; V 2.89; Y 2.49; E 1.75
T19: F 1.85; L 2.3; S 2.5; K 1.84; I 2.22; N 2.09; Q 2.37; R 2.24; Y 3.12; G 2.72; C 1.42; M 1.21; E 2.86; P 1.83
V16: A 1.66; P 1.97; H 2.56; E 1.59; D 1.81; F 1.23; L 1.57; I 2.37; C 1.06; M 2.47; Y 1.96; G 3.55; N 1.78; Q 2.28; T 1.61; K 2.73; R 1.19; W 2.01
T11: P 2; W 1.98; L 2.12; D 2.2; R 3.69; H 1.69; N 1.9; K 1.68; I 3.25; F 1.48; Y 4.5; E 2.86; G 1.97; V 2.12; C 1.78; Q 2.15
V12: H 2.23; P 2.85; S 1.97; Q 2.56; E 2.23; G 1.09; R 2.08; W 1.26; N 1.97; I 2.57; F 1.45; Y 2.73; A 2.46; T 1.69; K 3.27; M 2.48; C 2
S17: T 1.64; D 2.33; N 2.29; F 2.77; G 3.4; M 1.28; Y 1.53; I 1.28; C 3.15; Q 2.67; W 2.42; R 1.88; A 2.34; H 1.85
G8: Q 1.98; W 2.51; Y 1.89; T 2.47; S 2.4; R 1.41
C20: D 2.3; S 1.75; V 1.88; H 4.01; Q 1.84; T 1.04; A 3.39; M 2.33; P 1.81; Y 2.24; I 1.63; W 3.63; N 2.6; L 1.44; F 1.84
E10: I 3.19; S 1.86; T 1.63; V 1.02; M 1.73; F 3.97; N 1.86; P 1.18; R 2.49; Y 2.52; D 1.8; H 2.21; Q 1.2; K 3.86
S24: P 2.33; H 1.64; Y 1.86; I 1.71; K 2.6; F 1.88; R 1.47; Q 2.72; V 2.67; T 2.03; A 1.69; D 1.76; N 2.44; M 1.96; L 2.3
W9: D 2.33; R 1.88; V 2.31; N 2.27; I 2.22; Q 2.03; K 2.06; Y 2.32; H 2.73; G 1.96; E 2.79; P 2.95; F 1.41; L 2.29; M 1.72; T 1.55; S 2.03
